Measurements: US20260055143A1, “HIGH AFFINITY VARIANTS OF SH2 DOMAINS” (Axoiya Inc., priority 2023, published 2026)

Biological target: SLTI{pTyr}AQVQKA (Homo sapiens, UniProt Q13291)
Test: Competitive ELISA, SH2D1B variants
Assay type: binding

B1: SH2D1B: SH2D1B SH2 domain, SEQ ID 67 (protein, listed as Homo sapiens)
chain: YYHGRLTKQDCETLLLKEGVDGNFLLRDSESIPGVLCLCVSFKNIVYTYRIFREKHGYYRIQTAEGSPKQVFPSLKELISKFEKPNQGMVVHLLKPI
change in affinity (superbinding grafts or the αA-2-Arg substitution): could not be improved further
change in affinity (with either the sSrc or sFes graft): no improvement in affinity
